Test results reported in the supplement of paper PMC10567573.
± gives the standard deviation.

Experiment: protein stability index of a GFP-peptide fusion (GPS, HEK-293T) (PSI 1-6); higher = more stable
[1] = treatment: DMSO, c terminus: a fixed tail appended
[2] = treatment: MLN4924 1 uM, 8 h, c terminus: a fixed tail appended
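Further: 24-mer peptide tiles fused after GFP, lentivirally expressed, FACS-sorted into six equal bins by GFP/DsRed ratio, decoded by Illumina sequencing, PSI is the read-weighted mean bin number.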

Sequence	protein stability index [1]	protein stability index [2]	protein stability index (treatment: DMSO, c terminus: native)	protein stability index (treatment: MLN4924 1 uM, 8 h, c terminus: native)
ISPGKNATGMEVGWYRPPFSRVVH [MOG]	2.45 ± 0.17	2.69 ± 0.23	–	–
SVAPMNVRRGLAGATTLGDMIYVS [KLHL12]	2.78 ± 0.53	2.96 ± 0.5	–	–
RSSGLVQRRTEASRNAADKERAAG [GOLPH3]	5.11 ± 0.3	5.14 ± 0.33	–	–
WKITIYDQENFQGKRMEFTSSCPN [CRYBA1]	2.26 ± 0.38	2.15 ± 0.23	–	–
MSEMAELSELYEESSDLQMDVMPG [EID1]	5.43 ± 0.088	5.25 ± 0.32	–	–
RSPDASPSRAPPSTQEPQSPREGE [GNAS]	5.36 ± 0.12	5.42 ± 0.078	–	–
RYSTNLSNHVDDFTTFRGTELSFL [EDNRA]	2.58 ± 0.17	2.54 ± 0.21	–	–
SEMLDITMKESLTTREIRRQEAIY [NET1]	3.75 ± 0.18	3.91 ± 0.33	–	–
MSAQSVEEDSILIIPTPDEEEKIL [ZNF24]	5.08 ± 0.19	5.23 ± 0.1	–	–
TGANTKKPEDTAEDLTAKRKRMKM [FAM9B]	5.4 ± 0.28	5.15 ± 0.51	–	–
HLLSWFSPTIIFDNWIPLLWCANI [DHCR7]	2.98 ± 0.18	3.08 ± 0.21	–	–
QSCLLVIFATKPHVLPAVLAEVAP [PYCR3]	3.09 ± 0.75	3.32 ± 0.74	–	–
LFAGPHSTLTPPCSPPEDGLCPH [SNX8]	–	–	3.79 ± 0.52	3.85 ± 0.22
VPHNGSSEATLPAQMSTLHVSPPP [PDLIM4]	4.87 ± 0.17	4.73 ± 0.19	–	–
QETPGPREALTRLQELCYQWLRPH [ZSCAN9]	2.54 ± 0.12	2.6 ± 0.17	–	–
ERAKMSSSEVGPFVSKIRAVINDI [AUH]	2.76 ± 0.14	2.86 ± 0.31	–	–
VLDSLLLTLLPQLQEAWQQRTPSP [RSAD1]	2.85 ± 0.052	3.27 ± 0.43	–	–
AVPHPPPSTPIKLEEGDGCAREYL [ADD1]	4.16 ± 0.35	4.42 ± 0.23	–	–
DVSSTEEFLELSPQKLKEVISLEK [GAN]	4.88 ± 0.18	4.87 ± 0.16	–	–
YLAHASDVLENAFAPLLDEQYDLA [GOLPH3]	2.83 ± 0.21	3.12 ± 0.36	–	–
NLYVFGGYNPDYDESGGPDNEDYP [KLHDC10]	3.9 ± 0.28	4.09 ± 0.22	–	–
DFFIVGCEVIFCVFIFYYVVEEIL [PKD2L1]	1.92 ± 0.47	2 ± 0.3	–	–
GFAMYYFTYDPWIGKLLYLEDFFV [SAT1]	3.16 ± 0.17	3.03 ± 0.34	–	–

Sequence	protein stability index [1]	protein stability index [2]	protein stability index (treatment: DMSO, c terminus: native)	protein stability index (treatment: MLN4924 1 uM, 8 h, c terminus: native)
DSEEDEKMEEDIKEEEEKDHNEAM [PCMTD1]	5.81 ± 0.082	5.64 ± 0.2	–	–
QSCARAVVPSYIPLVKKHCDDSFT [CPOX]	2.73 ± 0.2	2.71 ± 0.27	–	–
KVRPSHKRCIVILREIPETTPIEE [LARP4]	2.59 ± 0.21	2.58 ± 0.35	–	–
PLWQCYLGRFNDINVPIRLECVKF [PDS5B]	2.46 ± 0.54	2.35 ± 0.28	–	–
SLVLPWSFPLEWAPQNLTRWTFEK [TOR1AIP2]	2.14 ± 0.44	2.29 ± 0.32	–	–
ANAEDAQEFSDVERAIETLIKNFH [S100A14]	3.39 ± 0.43	3.94 ± 0.74	–	–
YKEKFGITDLPRIDVSKREPPPVK [EFHC1]	3.67 ± 0.38	4.04 ± 0.23	–	–
GGNKKSDGVKESSESTNTTIEDED [CAMK2A]	5.7 ± 0.087	5.53 ± 0.26	–	–
VRLAARQEDAPMIEPLVPEEKMET [EPB41L3]	4.9 ± 0.16	5.17 ± 0.24	–	–
AGVLTIALPVPVIVSNFNYFYHRE [KCNA4]	2.6 ± 0.21	2.84 ± 0.79	–	–
AGFSPDCIMDDAINILQNEKSHQV [INTS4]	4.13 ± 0.12	4.17 ± 0.18	–	–
PESQFPEFSTSLFSGSLEPVACGS [SRPK2]	4.21 ± 0.26	4.29 ± 0.064	–	–
DYEFRVVAVNNIGRGPPSEPVLTQ [PTPRD]	3.08 ± 0.16	3.04 ± 0.47	–	–
MPIPEDLSTTSGGQQSSKSDRVVA [IKZF1]	5.44 ± 0.16	5.39 ± 0.2	–	–
RMSYQDPAQLSCLPYLEHVGHNHT [NFE2L1]	2.98 ± 0.2	3.12 ± 0.28	–	–
IKRTIRVLDVNNQSFREQEEPSNK [NET1]	3.68 ± 0.42	3.93 ± 0.26	–	–
SFVLKNFPALLSTGEFLKLPFERL [KLHL13]	1.94 ± 0.42	2.07 ± 0.42	–	–
FATRPGAIETAMEDLKGHVAETSG [TPRG1]	4.45 ± 0.31	4.81 ± 0.19	–	–
ISRDRLSSYYKFKLTREVLSLFVQ [ZER1]	2.11 ± 0.52	2.13 ± 0.29	–	–
ENMDLNKIDDLMQEITEQQDIAQE [CHMP4C]	5.6 ± 0.27	5.4 ± 0.24	–	–
RRRRIIINVGGIKYSLPWTTLDEF [KCNG1]	2.48 ± 0.44	2.46 ± 0.59	–	–
MLGRLGYLNHVRAASPQDLAGGYT [MNAT1]	2.61 ± 0.14	2.59 ± 0.37	–	–
LSDEDDGFVDLLDGENLKNEEETP [CDC25A]	5.48 ± 0.33	5.4 ± 0.31	–	–

Sequence	protein stability index [1]	protein stability index [2]	protein stability index (treatment: DMSO, c terminus: native)	protein stability index (treatment: MLN4924 1 uM, 8 h, c terminus: native)
LTRVLAEMREQYEAMAEKNRRDVE [KRT15]	3.47 ± 0.31	3.93 ± 0.28	–	–
VLERAACLRRCKRTLPAFQVPYPP [P3H4]	2.16 ± 0.29	2.16 ± 0.19	–	–
HEQALFIYVHILKDTRMAEEYCHK [VPS39]	2.57 ± 0.62	2.4 ± 0.59	–	–
RKKQHICDECGKHFSQGSALILHQ [ZNF24]	3.53 ± 0.21	3.62 ± 0.41	–	–
FSQSAGLIQHQRIHKGEKPYQCSQ [ZSCAN9]	3.55 ± 0.071	3.68 ± 0.18	–	–
PDPPVNFLRQKVLSLPLPDPLKYY [PCMTD2]	2.85 ± 0.13	2.93 ± 0.079	–	–
LAKTGEGSYGVVFKCRNKTSGQVV [CDKL4]	2.72 ± 0.31	2.75 ± 0.2	–	–
YDRRVIRGNTYALQTGPLLGRPDS [RSPH3]	3.29 ± 0.24	3.56 ± 0.25	–	–
RMGLMKANHVFFLLYLLHILLLDG [FADS1]	2.94 ± 0.83	2.68 ± 0.52	–	–
RRMAAEATEWQKAGAPPPSGSAVS [SRPK2]	4.59 ± 0.42	4.68 ± 0.29	–	–
LLYAQGLLAIQFLEFFYGIATATE [SLC19A2]	3.53 ± 0.64	3.2 ± 0.037	–	–
HWPQGPTGPPGPPGPMGPPGPPGP [EMID1]	4.66 ± 0.22	4.73 ± 0.45	–	–
GILTLAMIAFFFIIIYLGPMVLMI [CDS2]	2.7 ± 0.57	2.48 ± 0.35	–	–
VRLKPALQRLDFSVRGYMMSKQRE [RETREG3]	2.64 ± 0.48	2.7 ± 0.44	–	–
SAENSVAKKEDKVPVKKQKTRTVF [NANOGP8]	4.21 ± 0.33	4.29 ± 0.34	–	–
KIQASGETPNSLNTTVIPNGSMAM [LYSMD4]	4.22 ± 0.097	4.09 ± 0.2	–	–
GCNSVLIQFATPNDFCSFYNILKT [CARM1]	3.23 ± 0.62	2.84 ± 0.61	–	–
TASLIEDIDKKHLVLLRDGRTLIG [LSM1]	2.83 ± 0.15	2.62 ± 0.32	–	–
AEVWVSGTIFIRNVLLFKKQNPGK [RETREG3]	2.68 ± 0.54	2.49 ± 0.35	–	–
TLVSRAHQLVMEGYNWCHDRNVVT [PPP2CA]	2.27 ± 0.23	2.21 ± 0.13	–	–
REVEARYALQMEQLNGILLHLESE [KRT18]	2.98 ± 0.63	3.16 ± 0.53	–	–
NFSTFIKCIFTQFRIILGDFDYNA [PKD2L1]	2.98 ± 0.36	2.94 ± 0.41	–	–
NGSGDMIFEGNSEKEIPVLNELPV [CPXM2]	4.79 ± 0.34	5.01 ± 0.25	–	–

Sequence	protein stability index [1]	protein stability index [2]	protein stability index (treatment: DMSO, c terminus: native)	protein stability index (treatment: MLN4924 1 uM, 8 h, c terminus: native)
QDGSESFFFRHGHRGLLTMQLKSP [SPAG8]	2.96 ± 0.3	3.03 ± 0.35	–	–
RQPPPPAPQHPQPGSQALPAPALA [FBXO28]	4.45 ± 0.23	4.74 ± 0.16	–	–
AEMSRVSIRILDELVLPFQELQID [HNF4A]	2.67 ± 0.35	2.74 ± 0.23	–	–
QREGTGKTVSLQIFSVLNSDDAAA [SMOC2]	3.38 ± 0.24	3.35 ± 0.4	–	–
FDSSRQRAEGTDIPTVKPLKPRPE [ZC2HC1A]	5.02 ± 0.099	5.09 ± 0.14	–	–
EAAKQMRSRGKVLKTKDGKLPFCA [CPOX]	3.89 ± 0.4	3.68 ± 0.23	–	–
NLLSIALYLLSGSIIAVAMQRGAR [POMT2]	3.2 ± 0.36	3.34 ± 0.13	–	–
QGQAKTPDSMFLAMLAVVSCASIG [CDK11A]	3.36 ± 0.59	3.11 ± 0.63	–	–
EGGEGEKEGEGEVGGEAVEVEEVE [TRIM55]	5.66 ± 0.35	5.41 ± 0.29	–	–
RFHYDRNPGTDAVAQTSLEEFNVL [FATE1]	3.74 ± 0.24	3.78 ± 0.11	–	–
RLRVELECEEGELSFYDAERHCHL [TRIM35]	3.66 ± 0.17	3.75 ± 0.075	–	–
PTPPGQYFYPRGGGSGGGAGGAGG [JUNB]	4.81 ± 0.15	4.5 ± 0.16	–	–
ILLDGSEYTCDVEKRSRGQVLFDK [EPB41L3]	2.86 ± 0.55	2.94 ± 0.61	–	–
DGFFYFFHGTRQYKFDPKTKRILT [MMP1]	2.14 ± 0.48	2.28 ± 0.23	–	–
WCSVAYWEHRTRVGRLYAVYDQAV [SMAD6]	2.44 ± 0.43	2.18 ± 0.16	–	–
AKRLLDADDAAAVAAKCPRLSECS [TRIB1]	4 ± 0.51	4.11 ± 0.42	–	–
NYRIMSYFKEAELKDLLLQVGRGL [WEE1]	2.46 ± 0.87	2.15 ± 0.4	–	–
HSAVARISRAQYNALTLTFQRAMH [STX11]	2.08 ± 0.31	2.14 ± 0.19	–	–
HEGEDQFLSLEASTETLVHVSDED [DLC1]	5.61 ± 0.17	5.58 ± 0.32	–	–
QVHQGIKGMVLDENYNNLANAVIS [CPN1]	2.52 ± 0.23	2.62 ± 0.34	–	–
